Assay results: paper PMC3820850

Legend:
[1] = target: native glycophorin-A extracted from human erythrocytes, chemically biotinylated (human) (UniProt P02724); assay: SPR; kinetic; biotinylated GYPA immobilised on streptavidin chip; analyte injected at 100 μl/min; 37 °C, HBS-EP; nonlinear fit of association and dissociation phases
[2] = target: PfEBA175 FL (entire ectodomain of P. falciparum 3D7 EBA175), Cd4-tagged and enzymatically biotinylated (P. falciparum (3D7)); assay: SPR; homophilic; biotinylated PfEBA175 FL immobilised on streptavidin chip, soluble PfEBA175 FL as analyte; quantified from the dissociation phase; 37 °C, HBS-EP
[3] = target: native glycophorin-A extracted from human erythrocytes, chemically biotinylated (human) (UniProt P02724); assay: SPR; equilibrium; biotinylated GYPA immobilised on streptavidin chip, biotinylated Cd4 tag as reference; SEC-separated analyte injected at 20 μl/min; BIAcore T100, 37 °C, HBS-EP; steady-state 1:1 fit
[4] = target: PfEBA175 FL (entire ectodomain of P. falciparum 3D7 EBA175), Cd4-tagged and enzymatically biotinylated (P. falciparum (3D7)); assay: SPR; equilibrium; biotinylated PfEBA175 FL immobilised, serial dilutions of PfEBA175 FL or RII injected; responses at equilibrium as a fraction of calculated Rmax; 37 °C, HBS-EP

Row | Substance | koff [1] [s⁻¹] | kon [1] [M⁻¹ s⁻¹] | koff [2] [s⁻¹] | Kd [3] [µM] | fold weaker binding affinity to PfEBA175 FL than that of PfEBA175 FL [4] [fold]
1 | PfEBA175 FL (entire ectodomain of P. falciparum 3D7 EBA175), Cd4- and hexa-His-tagged, soluble (domain or fragment) | 0.0968 | 860000 | 0.04 | 0.26 | 
2 | PfEBA175 RII (region II, tandem DBL domains F1 and F2), Cd4- and hexa-His-tagged, soluble (domain or fragment) |  |  |  | 2.52 | 70
